# US20110112012A1 (UNIVERSITY OF GEORGIA STUDIES RESEARCH FOUNDATION, published 2011)
# T1: Cry4Ba toxin (Cry4BRA mutant, R203 replaced by A) of Bacillus thuringiensis israelensis (Bacillus thuringiensis israelensis, UniProt P05519 51-641)
# T1 construct: domain: ~66 kDa toxin mosquitocidal fragment; also called labeled Cry4Ba
# T1 sequence: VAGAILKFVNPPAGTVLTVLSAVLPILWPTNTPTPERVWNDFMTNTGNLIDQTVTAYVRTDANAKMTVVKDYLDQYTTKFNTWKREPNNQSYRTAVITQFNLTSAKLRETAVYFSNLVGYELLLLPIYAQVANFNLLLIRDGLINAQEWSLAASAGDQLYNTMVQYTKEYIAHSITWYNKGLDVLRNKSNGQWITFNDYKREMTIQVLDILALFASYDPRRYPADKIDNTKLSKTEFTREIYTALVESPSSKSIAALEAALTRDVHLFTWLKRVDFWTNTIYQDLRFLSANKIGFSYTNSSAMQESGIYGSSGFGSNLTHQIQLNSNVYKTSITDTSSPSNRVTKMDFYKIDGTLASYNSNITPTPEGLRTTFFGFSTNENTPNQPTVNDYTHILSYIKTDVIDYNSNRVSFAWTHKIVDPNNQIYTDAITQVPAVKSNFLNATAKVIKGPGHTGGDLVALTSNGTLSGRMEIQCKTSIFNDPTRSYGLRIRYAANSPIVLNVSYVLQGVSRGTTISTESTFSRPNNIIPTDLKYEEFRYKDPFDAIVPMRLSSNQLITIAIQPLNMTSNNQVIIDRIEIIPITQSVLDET
# Biological target: T1, Cry4Ba toxin (Cry4BRA mutant, R203 …)
# Experiment: microplate ELISA, Cry4Ba coated, biotinylated fragment titrated, one site saturation fit
row,Binder,Kd
1,"CR11-MPED peptide of AgCad1 (amino acids 1358G to 1569A), expressed in E. coli (Biotinylated with sulfo-NHS-PC-biotin for the microplate assay; also called AgCad CR11-MPED; AgCad-CR11-MPED) GITTNDRVPKALFRVYAEDPDEDEIIRYELVNGTAVGENLQTDGLPFRLHPDSGELTLTSKVQPNQNGYYQLTLIAFDRDDTHNDTVPAKVYIVSESNRVTFVFLNSVEEIDQPDVRKFLAQELTGAYEMECNIDDIDQTTASDGRQAGGSSSALTDVRTHFIQDNQAVEASRIQQRSSNRTFVTVLKTTLRTRGLSLQDVPPLATEALTEA",393 nM
2,"CR9-11 fragment of AgCad1, expressed in E. coli (Biotinylated for the microplate assay; also called AgCad CR9-11; AgCad-CR9-11) GSPLPKFEAIDDDGGIYGDVTFSLTSTNDGEQDHEVFRVDKVDNKTGLLVLENSLAVQPFPKNYSITVIARDGGDRQSEAAIHVVFINMTGEPAFLEPTFDTDFTENEEGRDERRQLPFAEDPKNAGLPPGAETNVYYFIDKTYGNASHLFQLDRVSNVLQLAQLLDREEIPTPEIRIVATNNENSPPDTVLESSPSLLVVRIKVNDVNDNPPVFQQRLYAAGITTNDRVPKALFRVYAEDPDEDEIIRYELVNGTAVGENLQTDGLPFRLHPDSGELTLTSKVQPNQNGYYQLTLIAFDRDDTHNDTVPAKVYIVSESNRVTFVF",173 nM
